Assay results from patent US20220119534A1 (DRAGONFLY THERAPEUTICS, published 2022).
Changes are numbered by the printed parent chain. Numbers in names are those of the source. Where “and” joins values, the source holds several entries; their conditions need not be identical. Equal values may be shown once.

Columns and labels:
mFc-hNKG2D [1] = biological target: T1, mFc-hNKG2D (human, UniProt P26718 73-216); assay: SPR Biacore 8K 37 C; mFc-hNKG2D captured on anti-mFc chip, TriNKET as analyte; steady state fit; after 2 wks 40 C at pH 8.0
T1 construct: extracellular domain; Made in house (Dragonfly Tx); the order of tag and ECD follows the name mFc-hNKG2D; also called mFc-tagged human NKG2D; not shown: mouse Fc tag
T1 sequence (looked up): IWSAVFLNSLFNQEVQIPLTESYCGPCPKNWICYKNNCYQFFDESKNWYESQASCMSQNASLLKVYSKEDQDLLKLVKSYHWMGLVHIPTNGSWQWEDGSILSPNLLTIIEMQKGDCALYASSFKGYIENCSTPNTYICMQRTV

Human CLEC12A-His = biological target: T2, Human CLEC12A-His (human, UniProt Q5QGZ9 65-265); assay: cell-based or functional assay
T2 sequence: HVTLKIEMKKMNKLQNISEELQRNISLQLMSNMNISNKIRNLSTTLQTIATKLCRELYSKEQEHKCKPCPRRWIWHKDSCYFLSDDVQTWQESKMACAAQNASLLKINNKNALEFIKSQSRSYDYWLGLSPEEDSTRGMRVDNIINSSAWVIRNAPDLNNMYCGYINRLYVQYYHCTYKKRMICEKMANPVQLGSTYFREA

mFc-hNKG2D [2] = biological target: T1, mFc-hNKG2D; assay: SPR Biacore 8K 37 C; mFc-hNKG2D captured on anti-mFc chip, TriNKET as analyte; steady state fit; un-oxidized control
[3] = biological target: T3, Human CLEC12A-His (recombinant, K244 WT) (human, UniProt Q5QGZ9 65-265); assay: SPR, two-state fit (ka1); fully purified protein after low pH hold
T3 construct: Made in house (Dragonfly Tx); also called hCLEC12A; hCLEC12A-His; not shown: His tag
T3 sequence: T2 sequence

Cynomolgus FcRn = biological target: T4, Cynomolgus FcRn (cynomolgus monkey, UniProt Q8SPV9 24-297; Q8SPW0 21-119); assay: SPR 25C, pH 6.0, FcRn on chip, steady state fit (n = 3)
T4 construct: Bought recombinant receptor; also called cFcRn; cyno FcRn
T4 sequence (Q8SPV9 24-297 limits assumed, chain 1 of 2): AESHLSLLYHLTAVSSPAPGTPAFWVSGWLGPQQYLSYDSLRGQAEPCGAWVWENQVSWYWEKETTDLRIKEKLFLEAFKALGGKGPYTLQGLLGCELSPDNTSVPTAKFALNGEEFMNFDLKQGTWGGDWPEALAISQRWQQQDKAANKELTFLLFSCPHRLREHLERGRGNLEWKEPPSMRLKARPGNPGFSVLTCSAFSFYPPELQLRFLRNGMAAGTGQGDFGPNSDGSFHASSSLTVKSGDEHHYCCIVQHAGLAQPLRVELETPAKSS
T4 sequence (Q8SPW0 21-119 limits assumed, chain 2 of 2): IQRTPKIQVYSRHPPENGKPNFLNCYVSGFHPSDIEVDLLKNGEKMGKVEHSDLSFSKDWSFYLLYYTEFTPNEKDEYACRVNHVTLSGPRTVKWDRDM

[4] = biological target: T5, Human CD16a V158 (FcγRIIIa V158) (human, UniProt P08637 17-208, biotinylated); assay: SPR 25C, average
T5 construct: Bought recombinant receptor; also called hCD16aV; hFcγRIIIa V158
T5 sequence (P08637 17-208 F176V limits assumed): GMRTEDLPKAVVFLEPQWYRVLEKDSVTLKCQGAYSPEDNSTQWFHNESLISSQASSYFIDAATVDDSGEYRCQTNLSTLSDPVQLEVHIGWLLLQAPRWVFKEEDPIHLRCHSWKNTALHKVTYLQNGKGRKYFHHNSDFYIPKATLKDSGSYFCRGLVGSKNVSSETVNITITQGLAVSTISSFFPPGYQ

[5] = biological target: T5, Human CD16a V158 (FcγRIIIa V158); assay: SPR; after low pH hold
[6] = biological target: T6, Cynomolgus CD16 (FcγRIII) (cynomolgus monkey, UniProt Q8SPW2 17-208, biotinylated); assay: SPR 25C, biotinylated cyno CD16 captured
T6 construct: Bought recombinant receptor; also called cFcγRIII; Cyno FcγRIII
T6 sequence (Q8SPW2 17-208 limits assumed): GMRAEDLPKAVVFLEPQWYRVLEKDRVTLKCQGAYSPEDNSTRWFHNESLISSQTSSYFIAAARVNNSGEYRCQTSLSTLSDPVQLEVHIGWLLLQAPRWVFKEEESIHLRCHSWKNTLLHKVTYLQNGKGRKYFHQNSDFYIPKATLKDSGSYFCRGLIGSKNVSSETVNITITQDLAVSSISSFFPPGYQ

[7] = biological target: T3, Human CLEC12A-His (recombinant, K244 WT); assay: SPR, two-state fit (kd1); control sample
[8] = biological target: T7, mFc-hNKG2D (recombinant mFc-tagged human NKG2D dimer) (human, UniProt P26718 73-216); assay: SPR; control sample
T7 construct: extracellular domain; Made in house; not shown: mouse Fc tag
T7 sequence (looked up): T1 sequence (looked up)

[9] = biological target: T5, Human CD16a V158 (FcγRIIIa V158); assay: SPR; control sample
[10] = biological target: T8, Human CLEC12A expressed on cells (Ba/F3-hCLEC12A, PL21, HL60) (human, UniProt Q5QGZ9 1-265); assay: cell-based or functional assay
T8 sequence: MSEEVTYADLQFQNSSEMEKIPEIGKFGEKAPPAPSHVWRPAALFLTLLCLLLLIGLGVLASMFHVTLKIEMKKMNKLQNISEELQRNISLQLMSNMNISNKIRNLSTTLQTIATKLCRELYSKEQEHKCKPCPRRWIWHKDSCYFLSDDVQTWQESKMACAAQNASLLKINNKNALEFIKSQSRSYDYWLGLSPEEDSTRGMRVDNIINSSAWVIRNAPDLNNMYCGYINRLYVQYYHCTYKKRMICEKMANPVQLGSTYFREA

[11] = biological target: T9, recombinant human CLEC12A-His (human, UniProt Q5QGZ9 65-265); assay: SPR
T9 construct: also called hCLEC12A-His; hCLEC12A
T9 sequence: T2 sequence

human CLEC12A-K244Q-His = biological target: T10, human CLEC12A-K244Q-His (human, UniProt Q5QGZ9 65-265); assay: SPR
T10 construct: Polymorphic variant; also called hCLEC12A-K244Q; CLEC12A (Q244)
T10 chain: T2 sequence with K180Q

recombinant human CD32b = biological target: T11, recombinant human CD32b (human, UniProt P31994 46-217, limits assumed, biotinylated); assay: SPR 25C, steady state
T11 construct: also called FcγRIIb
T11 sequence (looked up): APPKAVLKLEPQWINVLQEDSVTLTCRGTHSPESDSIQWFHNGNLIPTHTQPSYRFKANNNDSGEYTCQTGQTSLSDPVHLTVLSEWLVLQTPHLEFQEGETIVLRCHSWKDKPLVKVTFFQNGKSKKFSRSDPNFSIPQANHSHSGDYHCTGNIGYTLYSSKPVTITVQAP

[12] = biological target: T12, human CLEC12A on cells (HL60, PL21, Ba/F3-hCLEC12A) (human, UniProt Q5QGZ9 1-265); assay: flow cytometry, HL60 cells
T12 construct: Endogenous on the AML lines HL60 and PL21; brought into mouse Ba/F3 cells by retroviral transduction; The cell line stands under assay; also called CLL-1
T12 sequence: T8 sequence

B1: F3'-1602 TriNKET (bispecific antibody, human IgG1, kappa)
chain: QLQLQESGPGLVKPSETLSLTCTVSGFSLTNYGLHWIRQPPGKCLEWIGVIWSGGKTDYNPSLKSRVTISKDTSKNQFSLKLSSVQAADTAVYYCAKYDYDDSLDYWGQGTLVTVSSGGGGSGGGGSGGGGSGGGGSDIQMTQSPSSLSASVGDRVTITCHASQNINFWLSWYQQKPGKAPKLLIYEASNLHTGVPSRFSGSGSGTRFTLTISSLQPEDIATYYCQQSHSYPLTFGCGTKLEIKGSDKTHTCPPCPAPELLGGPSVFLFPPKPKDTLMISRTPEVTCVVVDVSHEDPEVKFNWYVDGVEVHNAKTKPREEQYNSTYRVVSVLTVLHQDWLNGKEYKCKVSNKALPAPIEKTISKAKGQPREPRVYTLPPCRDELTKNQVSLTCLVKGFYPSDIAVEWESNGQPENNYKTTPPVLVSDGSFTLYSKLTVDKSRWQQGNVFSCSVMHEALHNHYTQKSLSLSPG
heavy: EVQLVESGGGLVKPGGSLRLSCAASGFTFSSYSMNWVRQAPGKGLEWVSSISSSSSYIYYADSVKGRFTISRDNAKNSLYLQMNSLRAEDTAVYYCARGAPIGAAAGWFDPWGQGTLVTVSSASTKGPSVFPLAPSSKSTSGGTAALGCLVKDYFPEPVTVSWNSGALTSGVHTFPAVLQSSGLYSLSSVVTVPSSSLGTQTYICNVNHKPSNTKVDKKVEPKSCDKTHTCPPCPAPELLGGPSVFLFPPKPKDTLMISRTPEVTCVVVDVSHEDPEVKFNWYVDGVEVHNAKTKPREEQYNSTYRVVSVLTVLHQDWLNGKEYKCKVSNKALPAPIEKTISKAKGQPREPQVCTLPPSRDELTENQVSLTCLVKGFYPSDIAVEWESNGQPENNYKTTPPVLDSDGSFFLYSWLTVDKSRWQQGNVFSCSVMHEALHNHYTQKSLSLSPG
light: DIQMTQSPSSVSASVGDRVTITCRASQGISSWLAWYQQKPGKAPKLLIYAASSLQSGVPSRFSGSGSGTDFTLTISSLQPEDFATYYCQQGVSFPRTFGGGTKVEIKRTVAAPSVFIFPPSDEQLKSGTASVVCLLNNFYPREAKVQWKVDNALQSGNSQESVTEQDSKDSTYSLSSTLTLSKADYEKHKVYACEVTHQGLSSPVTKSFNRGEC
notes: Trispecific F3' format: CLEC12A scFv-Fc paired with NKG2D Fab-Fc; Stressed and control samples of the stability studies are the same molecule; also called AB0237
- Kd (mFc-hNKG2D [1]): 919 nM
- EC50 (nM), KHYG-1-CD16aV cytotoxicity assay, PL-21 cells (Human CLEC12A-His): 0.12 nM
- Kd (mFc-hNKG2D [2]): 759 nM

B2: AB0089 TriNKET (bispecific antibody, human IgG1, kappa)
chain: B1 chain with S53V, K56A, K71V, Y98G, D101G, S103T, R207D, I220F
heavy: B1 heavy
light: B1 light
notes: F3' format heterodimer of three chains; human IgG1 Fc with EW-RVT and Y349C/S354C mutations; also called AB0089 Lot AB0089-002; CLEC12A TriNKET AB0089
- kon [3]: 1.02e+07 M⁻¹ s⁻¹
- Kd (Cynomolgus FcRn): 1000 nM
- Kd [4]: 333 nM
- koff [4]: 0.0277 s⁻¹
- kon [4]: 83100 M⁻¹ s⁻¹
- Kd [5]: 314 nM
- koff [5]: 0.0274 s⁻¹
- kon [5]: 87300 M⁻¹ s⁻¹
- Kd [6]: 351 nM and 347 nM and 348 nM
- koff [7]: 0.0476 s⁻¹
- Kd [8]: 772 nM
- koff [8]: 0.135 s⁻¹
- kon [8]: 175000 M⁻¹ s⁻¹
- Kd [9]: 323 nM
- koff [9]: 0.0276 s⁻¹
- kon [9]: 85300 M⁻¹ s⁻¹
- EC50, rested NK cells lysis of HL60 cells (mean of four donors) [10]: 0.09 nM

B3: F3'-1602 TriNKET (other)
chain: B1 chain
heavy: B1 heavy
light: B1 light
notes: CLEC12A scFv-Fc, NKG2D A49MI Fab-Fc, human IgG1 Fc; also called AB0237
- Kd [11]: 0.6 nM
- koff [11]: 0.000496 s⁻¹
- kon [11]: 826000 M⁻¹ s⁻¹
- Kd (human CLEC12A-K244Q-His): 0.77 nM
- koff (human CLEC12A-K244Q-His): 0.000436 s⁻¹
- kon (human CLEC12A-K244Q-His): 565000 M⁻¹ s⁻¹
- Kd (recombinant human CD32b): 7.2 µM and 6.1 µM and 6.9 µM

B4: AB0192 TriNKET (other)
chain: EVQLVESGGGVVQPGGSLRLSCAASGFTFNAFGMHWVRQAPGKCLEWVAFISSGSTSIYYANTVKGRFTISRDNSKNTLYLQMNSLRAEDTAVYYCARDGYPTGGAMDYWGQGTSVTVSSGGGGSGGGGSGGGGSGGGGSDIQMTQSPSSLSASVGDRVTITCKASQDIYNYLSWFQQKPGKAPKPLIYRANILVSGVPSRFSGSGSGQDYTFTISSLQPEDIATYYCLQFDAFPFTFGCGTKLEIKGSDKTHTCPPCPAPELLGGPSVFLFPPKPKDTLMISRTPEVTCVVVDVSHEDPEVKFNWYVDGVEVHNAKTKPREEQYNSTYRVVSVLTVLHQDWLNGKEYKCKVSNKALPAPIEKTISKAKGQPREPRVYTLPPCRDELTKNQVSLTCLVKGFYPSDIAVEWESNGQPENNYKTTPPVLVSDGSFTLYSKLTVDKSRWQQGNVFSCSVMHEALHNHYTQKSLSLSPG
heavy: B1 heavy
light: B1 light
notes: the condition stands under assay; also called AB0192 Lot AB0192-005
- EC50 [12]: 0.61 nM
- FOB (fold over background) [12]: 42 fold
